Source: the DeepSol protein solubility set

experiment: soluble on expression in E. coli; label from the status in PepcDB or PDB records

Row | Sequence | soluble on expression in E. coli
1 | MKLFQPSEIVTSLPTQFFASLVAKVNKVVAAGHDVINLGQGNPDQPTPQHIVKALQDAAEKTIHHKYPPFRGHESLKEAVATFYQREYDVVVNPKTEVAILFGGKAGLVELPVCFTNPGDTILVPDPGYPDYLSGVALAKAQFETMPLIAENNFLPDYTKIDDSIAERAKLMFLNYPNNPTGATASKDFFDETIHFANKHNILVVHDFAYGAIGFDGQKPVSFLQADGAKDTGIEIYTLSKTFNMAGWRIAFAVGNESVIETINLLQDHMYVSIFGAIQDAAREALLSSQSCVIDLVNSYESRRNALISACHSIGWNVDIPTGSFFAWLPVPEGYTSEQFSDILLEKAHVAVAPGVGFGEHGEGYVRVGLLHTEDRLREAINRIDKLNFFKK | not soluble
2 | MSLDNRFPVCINTMKLTMPKLEVYYPSIGGISDINVQKKMNNTILNLVYQMIEDQGYYKNTETTITGYFEIKNNQRGILSLTLSNYAFSGGAHGMTIMKSLTFNVETGEEYSLSQLFKPGSNYVKVLSELIKVQIRERDIPVIEEFCAIKPNQDFYIADKILVLYFQLYELVPYAYGFPQFPISVYTIQDIINEDGPLGRMLYEGHHHHHH | soluble
3 | MARIRARGSIPDINAYTGSNVTLKIHKDPLGPYRRITWLHTKNQKILEYNYNSTKTIFESEFKGRVYLEENNGALHISNVRKEDKGTYYMRVLRETENELKITLEVFDPV | soluble
4 | MAHHHHHHMLTKDADCEKSQQQKLEEDIKSPCTPSFHWVSDEDPKSDRATNHGCAKPLDWSPQTPETPPMSVAELRVTTVADTSETETTSESATHGNELRANEGESSASGTLEKPAGGVAAAGGAAPAAVPQKTEERGSSVPLKHKRSYGASDAVSSSSCHVDALGDLAGSVRQHHPTSTHTLDTSSSNGVGDAAKHAVAAGHVDESLPPPLSGVFFPFTACDAVTTASLVTLISSYCDVLTLVQLMRVNRSAHLLATSDAVWKPLLVSMNLPPLLAAYERDNDYYDFFVKDIITTRALHGHYTFQAANAASGSRESVSTTSGSRSAVMNRNYVSRDEDSLQDDIFNIASLQLLISAASLGQSNHLIGRVQLLITYKNESMEVLQGSCRFSVHRRCFSLCCSAFGTVKRGPVFTVAVATVTKPWANEGFQHFREHKNGIRLVMAPVLWEGPSPGSQITENDILVVSRPKPVPSLITSTTGSAAANSSLGAPTASRG | not soluble
5 | MGSDKIHHHHHHMKTHIFLYPGEGIGPELFESLRAFFSLFNDKLEYHYLASFQDLSSLNKPYYVLCGPFASEQEQTDVLNPLHPLYAHTLVPHDKKGNASILALPLTQKQTTGALKDLSVIAACFDPAHKVVMVQQYQEQPQIWEDAMKAWTKLAFSNHDWKFEDANVLSFIKHSQYSKANQVVSSMEGANVLKALYASIYKSLNRAHTLIEVEDGYITMPMHGHAPDIVGMGIANPYALLMAFCRLLTVAGYEELAQQVENQIESAFYENRDQTTPDQGGVLNTEKYMAMMVECINL | not soluble
6 | MLNNGTFPLVFQFIHRRRKLLYYTKYHIFQQQLADGALEVEYCEASLYSMKEIKEINRELKRDYKRFQNRILELERNNEEYLVDDIVEFKKKKSHRSYLLMQYIETQISYKKKMGKDGIAAAYHSTYISLKKYIGMKSARKSDIRMEEINFSFVVGYEDYLNAQGLARNTINYYLRNFRTIYNSSIRDGFKPKSENPFTYIQTKPCKTIKRAINKDDMKKLSSLILPVHSGMDIARDMYLFSFYAQGMAFVDIVFLKKKNIRDGILSYRRHKSQQLIHIVITPQMQGLIDKYANDSEYVFPIIDTSLSTSIYDQYRLALGRVNRYLKKITFRLNINVRLTTYTARHTWATLARESGAPISIISAGLGHTSEEMTRVYLKEFDQETLARVNRIVTNLL | not soluble
7 | GPGSMQRSTRIVMAPFKSVLRRHKHHPEGLPLYNDMSKQWLCREGERWWLLDARGEQLPRVAAVAAQYITGQHRPDFTPGMITGDHVVIVNIKDVVMVGDQWIRVPITWQTAYPGGKYRIRLTDMYERDPCMLMWWFLKDEVNRHFVRKLKTRIAPLEKAWLYEDSIHPHADKNPRPLCWTDPEVKGWKYRDPQFIRRWKPNEFMH | not soluble
8 | MATIKDVARLAGVSVATVSRVINNSPKASEASRLAVHSAMESLSYHPNANARALAQQTTETVGLVVGDVSDPFFGAMVKAVEQVAYHTGNFLLIGNGYHNEQKERQAIEQLIRHRCAALVVHAKMIPDADLASLMKQMPGMVLINRILPGFENRCIALDDRYGAWLATRHLIQQGHTRIGYLCSNHSISDAEDRLQGYYDALAESGIAANDRLVTFGEPDESGGEQAMTELLGRGRNFTAVACYNDSMAAGAMGVLNDNGIDVPGEISLIGFDDVLVSRYVRPRLTTVRYPIVTMATQAAELALALADNRPLPEITNVFSPTLVRRHSVSTPSLEASHHATSD | soluble
9 | GPGSMLNTFMFPGQGSQAKGMGGALFDRFADLTAQADAVLGYSIRALCVDDPRDELGRTQFTQPALYVVNALTYYAKCEDSGETPDFLAGHSLGEFNALLAAGCFDFETGLKLVARRAELMSQARDGAMAAIVNASREQIERTLDEHGLVDTAIANDNTPSQLVISGPAHEIARAEALFQHDRVRYLRLNTSGAFHSKFMRPAQQAFAAHLQSFRLADPAIPVISNVSARPYENGRVSEGLAQQIASPVRWCESIRYLLALAAERGEAIEFTELGHGDVLTRLVHTIRRQTPAPAAAATSARARPTPPGEPERPAQQTAAAPRASDSASASLGAAERVAAWNRDYPVGTRVRSSLIHDDVLETRTPATVLFGHRAAVYMKGYNGYFDLAEVTPA | soluble
10 | SGDKPPGFRGSRDWIGCVEASLCLAHFGGPQGRLCHVPRGVGLHGEVERLYSHFAGGGGPVMVGGDADARSKALLGVCVGSGTEAYVLVLDPHYWGTPKSPSELQAAGWVGWQEVSAAFDPNSFYNLCLTSLSSQQQQRTLD | soluble
11 | VILIIVAYLVGILIRKRNDSRIAQLEERKQKLFDLPINEEIEEVKNLHLIGQSQTTFREWNQKWIDISTNSFADIENHIFEAENMNDNFHFFKASAEINNIESQLDLVEEDIKSIREALSRLKEQEEKNSARVKHALDLYEELQNSIEGNSDNFGSTLDEITKQLKNIESEFAEFVTLNSSGDPVEASSILDRAEEHTIALGQITEKIPAIVAKLEDDFPDQLDDLESGYRKLIEQNYHFPEKNIERHFQEIREAIRSNSSELVSLDLDRAEEKNADIQEKIDNLYSIFEREIASYKVVMRQKKILPDYLKHAKENNKKLQEELERLMLTYIFDETYEADVRSFTSDISSVETAVLPTLENFDNQVKPFSELEKIFEKSLNTLSAVENGQVEVFENLRAIEKNEAKARDELDVYIDKLHVIKRYMEKRNLPGIPESFLSVFFSTSAQIEALMDELSRGRINIDAVMRLTKTSKNAIEHLEETAYLVVQNATLTEQLLQYSNRYRSFEPAVQSSFEHALKLFEVDHDYDASLEEISYALETVEPGVTDRFVSSYEK | not soluble
12 | MYNLHREKIFMSYNQNKQYLEDNPEIQEKIELYGLNLLNEVISDNEEEIRADYNEANFLHPFWMNYPPLDRGKMPKGDQIPWIEVGEKAVGSKLTRLVSQREDITVREIGLPTGPDERYLLTSPTIYSLTNGFTDSIMMFVDIKSVGPRDSDYDLVLSPNQVSGNGDWAQLEGGIQNNQQTIQGPRSSQIFLPTIPPLYILSDGTIAPVVHLFIKPIYAMRSLTKGDTGQSLYKIKLASVPNGLGLFCNPGYAFDSAYKFLFRPGKDDRTKSLLQKRVRVDLRVLDKIGPRVMTIDMDK | soluble
13 | MASSKNYLEFVLEQLSGLDDVTYRSMMGEYILYFRGKIIGGIYDDRFLVKPVQAVLDKIDQSSFEFPYKGAKEMI | not soluble
14 | MGHHHHHHSHMVNKNAGETLLQRAARLGYEEVVLYCLENKICDVNHRDNAGYCALHEACARGWLNIVRHLLEYGADVNCSAQDGTRPLHDAVENDHLEIVRLLLSYGADPTLATYSGRTIMKMTHSELMEKFLTDYLN | not soluble
15 | MAHHHHHHMNRSSSTSVNKDNVLQLTYYEIFSLDEVAESIDLQALHRAYRRFALLFHPDKDASPEAREAFLRVKLAAETLSDPIKRQEYNEQLRREAHEQREVKEQQRECGVGEEAIMAEMILRQKEAESLAKSAAANKEAAEREAAAKKMINELTNALTTPFKQMETALVSEWDIDEGLLDMKVNEIRLLLQKLHNLSCHREGRKGGGGAMGFSSGSEALPTAVKRTREESGVNITA | not soluble
16 | SPYIPLMEFSCSHSHLVCLPAEWRTSCMPSSKMKEMSSLFPEDWYQFVLRQLECYHSEEKASNVLEEIAKDKVLKDFYVHTVMTCYFSLFGIDNMAPSPGHILRVYGGVLPWSVALDWLTEKPELFQLALKAFRYTLKLMIDKASLGPIEDFRELIKYLEEYERDWYIGLVSDEKWKEAILQEKPYLFSLGYDSNMGIYTGRVLSLQELLIQVGKLNPEAVRGQWANLSWELLYATNDDEERYSIQAHPLLLRNLTVQAAEPPLGYPIYSSKPLHIHLY | not soluble
17 | MGSDKIHHHHHHVGEHGNVNLRAENCRLKGKDIIVLYRDELDLSSEQWLELLQDNTVFKDEDILLVLELYKCNNCREYASVLADSLGVASHSVLNLQIGRLGKRIIARYPDIKYPTREDGVVRYWHIPFWGEDGEKKGHYYWQLRPELKEALKMLKSNQKRKIFALHGEVQLAQEVDEEQTEKLYEGAKIQIVVNAYERNIKARQICIDKYGYKCSICDFDFEEFYGMLGSDYIEVHHLIPLHEINKEYRVDPINDLRPVCPNCHAMLHRAGISYEELKNKIESEC | not soluble
18 | MFSSAHSGLLEKLFHYIDLHQDEFVQTLKEWVAIESDSVQPVPRLRQKLFQMMALAADKLRNLGAGVESIDLGSQQMPDGQSLPIPPILLAELGSDPEKPTVCFYGHLDVQPAQKDDGWLTDPYTLTEVDGKLYGRGATDNKGPVLAWINAVSTFRALQQDLPVNIKLILEGMEEAGSIALEELVMREKDHFFSSVDYIVISDNLWLSQRKPALTYGTRGNCYFTVEVKCRDQDFHSGTFGGILNEPMADLVALLGSLVDSSGHILIPGIYDQMAPITEGEKTMYKNIDMDLEEYQNINQVEKFLFDTKEELLMHLWRYPSLSIHGIEGAFDEPGTKTVIPGRVLGKFSIRLVPTMSPSVVEKQVTQHLEAVFSKRNSFNKMAVSMVLGLHPWTANVNDTQYLAAQRTIKTVFGVNPDMIRDGSTIPIAKIFQAITQKSVMMLPLGAVDDGEHSQNEKINRWNYIQGSKLFAAFFLELSKQHSGHQMPSSVY | not soluble
19 | MALDQSLVGRSYPPTAPYEVGREKIREFAEAVGDANPAYTDAEAAKALGHPDVIAPPTFVFSITFKAAGQVIEDPQLGLDYSRVVHGDQKFSYARPVRAGDRLTVTSTIEAIKSMAGNDILDIRGEVHDEAGEHVVTAWTKLVARAAEEALEHHHHHH | soluble
20 | MSLDSKRYTFLLGPGQSCRTATDNFIALYDKRNSLEIKDIENAFNVEALSKEFFGKYKAQYEAFVNYMVDPTNGMRQHFIDTGFDHTGMAADKIRDREEKPIRDYVKKLLGRIVFLHFLQKKGWLGVPASKEWGEGDRDFMLNIFKNANERQKENFLDDILEDLFTEGLDRNRSDQGDLYDTKVEGFRNCRIPYLNGGLFERDILDKKPSHFPASYFNGLLTMLSQYNFTIDENDPNDAEVGVDPEMLGRIFENLLEDNKDKGAFYTPKEIVQYMCRESLIAYLQTDMREEDKECIRQFVTTHDASQLGELKEYIDQKLYDVKICDPAIGSGAFPMGLLRELFFCRSAIEPNIVENAANIKRHIIQNNIYGVDIERGAVDIARLRFWLSLIVDEKSPEALPNLDFKIMQGNSLLEQYKGVDLSTEGHHHHHH | not soluble
